Results as given in the supplement of paper PMC9233669.
This sample holds only a part of the variants without activity.

These sequences were tested on biotinyl-Phe-oxazolone (assay: self-aminoacylation, catalytic enhancement (BFO) (fold over background); higher = more active; k-Seq, kA / k0A0; sequences stand for … in GGGAAUGGAUCCACAUCUACGAAUUC…UUCACUGCAGACUUGACGAAGCUG).
Outline: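 Mutagenized RNA pools with a 21-nt variable region (0.43 μM) reacted with each biotinyl-aminoacyl-oxazolone at 2–1250 μM. Reactions ran in 50 μL HEPES/NaCl/KCl/MgCl2/CaCl2 buffer with 5% acetonitrile, pH 6.9–7.0, for 90 minutes at room temperature. Streptavidin-captured RNA was quantified by triplicate qPCR and Illumina sequencing, and per-sequence fraction reacted was fit to a pseudo-first-order model with 1000 bootstraps. Catalytic enhancement is median kA divided by the uncatalyzed rate, the low-activity peak of a bimodal Gaussian fit.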

Sequence | self-aminoacylation
AAAUUUGCUAAUAGUCGAAAG [Fam3.1 aminoacylation ribozyme variant] | 4.94
AAAUUUGCUAAUAGUCUCAAG [Fam3.1 aminoacylation ribozyme variant] | 2.03
AAGAUUGCUAAUAGUCACAAG [Fam3.1 aminoacylation ribozyme variant] | 2.63
AAGGUAGCUAAUAGUCGCAAG [Fam3.1 aminoacylation ribozyme variant] | 3.35
AAGGUUACUAAUAGUCGCAAG [Fam3.1 aminoacylation ribozyme variant] | 2.19
AAGGUUGCUAAUAGUCGCCAG [Fam3.1 aminoacylation ribozyme variant] | 2.54
AAGGUUGCUUAUAGUCGCAAG [Fam3.1 aminoacylation ribozyme variant] | 2.7
AAGUAUACUAAUAGUCGCAAG [Fam3.1 aminoacylation ribozyme variant] | 2.34
AAGUCUGCUAAUAGUCGCAAU [Fam3.1 aminoacylation ribozyme variant] | 6.06
AAGUUAGCUAAUAGUCACAAG [Fam3.1 aminoacylation ribozyme variant] | 3.83
AAGUUAGCUAAUAGUCGCAAU [Fam3.1 aminoacylation ribozyme variant] | 2.2
AAGUUAGCUAAUAGUCGCACG [Fam3.1 aminoacylation ribozyme variant] | 2.06
AAGUUCGCUAAUAGUCGAAAG [Fam3.1 aminoacylation ribozyme variant] | 4.18
AAGUUGGCUAAUAGUCGCCAG [Fam3.1 aminoacylation ribozyme variant] | 2.1
AAGUUGGCUAAUAGUCGCUAG [Fam3.1 aminoacylation ribozyme variant] | 2.22
AAGUUUACGAAUAGUCGCAAG [Fam3.1 aminoacylation ribozyme variant] | 2.82
AAGUUUACUAAUAGUUGCAAG [Fam3.1 aminoacylation ribozyme variant] | 2.19

Sequence | self-aminoacylation
AAGUUUGCGGAUAGUCGCAAG [Fam3.1 aminoacylation ribozyme variant] | 2.73
AAGUUUGCUAAUAAUCGUAAG [Fam3.1 aminoacylation ribozyme variant] | 3.54
AAGUUUGCUAAUAGUCGCAAA [Fam3.1 aminoacylation ribozyme variant] | 2.2
AAGUUUGCUAAUAGUCGCCUG [Fam3.1 aminoacylation ribozyme variant] | 7.8
AAGUUUGCUAAUUGUCGCAAU [Fam3.1 aminoacylation ribozyme variant] | 6.81
AAGUUUGUUAAAAGUCGCAAG [Fam3.1 aminoacylation ribozyme variant] | 2.4
AAGUUUUCUAAUAGUCUCAAG [Fam3.1 aminoacylation ribozyme variant] | 2.15
AAGUUUUCUAGUAGUCGCAAG [Fam3.1 aminoacylation ribozyme variant] | 2.53
AAUUUUGCUAAUAGUCACAAG [Fam3.1 aminoacylation ribozyme variant] | 3.77
AUAACCCUGGUCGUCGAGUGA [Fam2.1 aminoacylation ribozyme variant] | 2.78
AUACUUCAAACAAUCGGUCUA [Fam1A.1 aminoacylation ribozyme variant] | 3.14
AUACUUCAAACAAUCUGUCUG [Fam1A.1 aminoacylation ribozyme variant] | 2.2
AUCUUUGCUAAUAGUCGCAAG [Fam3.1 aminoacylation ribozyme variant] | 2.44
AUGUUUGCUAAUAGUCGCAAU [Fam3.1 aminoacylation ribozyme variant] | 2.83
AUGUUUGCUACUAGUCGCAAG [Fam3.1 aminoacylation ribozyme variant] | 2.12
AUGUUUGCUCAUAGUCGCAAG [Fam3.1 aminoacylation ribozyme variant] | 2.41
